Test results published in US20090280138A1 (OXFORD BIOMEDICA UK, published 2009).

How the values were obtained:
Experiment in all cases: iTopia peptide binding assay
[1] = target: T1, MHC class I allele A*0301 (bound via biotin to streptavidin-coated plate)
T1 construct: iTopia MHC class I monomer on the plate; placeholder peptide and b2M removed, then reconstituted with test peptide and fresh b2M; also called A3; HLA A3
Description: (§1) The 9 mers were tested for Peptide Binding, Off Rate and Affinity using iTopia Epitope Discovery System in accordance with the manufacturer's instructions. Briefly, 96 well microtitre plates coated with MHC molecules representing different MHC alleles are used to identify candidate peptides. […] Determinations are performed in duplicate using an ELISA plate reader and included allele specific positive controls.
(§2) i) Peptide Binding—This assay measures the ability of individual peptides to bind to the MHC molecules under standardized optimal binding conditions. The assay is performed for all the test peptides across the selected MHC alleles. The test peptides identified as “binders” are characterized further in terms of affinity and dissociation experiments.

[2] = target: T2, MHC class I allele A*0101 (bound via biotin to streptavidin-coated plate)
T2 construct: iTopia MHC class I monomer on the plate; placeholder peptide and b2M removed, then reconstituted with test peptide and fresh b2M; also called A1; HLA A1
Description: as §1, §2

[3] = target: T3, MHC class I allele B*0702 (bound via biotin to streptavidin-coated plate)
T3 construct: iTopia MHC class I monomer on the plate; placeholder peptide and b2M removed, then reconstituted with test peptide and fresh b2M; also called B7; HLA B7
Description: as §1, §2

[4] = target: T4, MHC class I allele A*0201 (bound via biotin to streptavidin-coated plate)
T4 construct: iTopia MHC class I monomer on the plate; placeholder peptide and b2M removed, then reconstituted with test peptide and fresh b2M; also called A2; HLA A2
Description: as §1, §2

[5] = target: T5, MHC class I molecule A*0101 (biotin (bound to streptavidin-coated plate))
T5 construct: iTopia monomer stripped of placeholder peptide and b2M, then reconstituted with test peptide and fresh b2M; also called A1; HLA-A1
Description: as §1, §2

[6] = target: T6, MHC class I molecule B*0702 (biotin (bound to streptavidin-coated plate))
T6 construct: iTopia monomer stripped of placeholder peptide and b2M, then reconstituted with test peptide and fresh b2M; also called B7; HLA-B7
Description: as §1, §2

[7] = target: T7, MHC class I molecule A*0301 (biotin (bound to streptavidin-coated plate))
T7 construct: iTopia monomer stripped of placeholder peptide and b2M, then reconstituted with test peptide and fresh b2M; also called A3; HLA-A3
Description: as §1, §2

[8] = target: T8, MHC class I molecule A*0201 (biotin (bound to streptavidin-coated plate))
T8 construct: iTopia monomer stripped of placeholder peptide and b2M, then reconstituted with test peptide and fresh b2M; also called A2; HLA-A2
Description: as §1, §2

| Binder | % of positive control peptide binding [1] [%] | % of positive control peptide binding [2] [%] | % of positive control peptide binding [3] [%] | % of positive control peptide binding [4] [%] | binding, % of positive control peptide [5] | binding, % of positive control peptide [6] | binding, % of positive control peptide [7] | binding, % of positive control peptide [8] |
| --- | --- | --- | --- | --- | --- | --- | --- | --- |
| IVPPEDERQ (also called Peptide No 92) [5T4 9 mer peptide 92 IVPPEDERQ] | 3 | 6 | 3 | 12 | – | – | – | – |
| LASNHFLYL [5T4 9 mer peptide 109 LASNHFLYL] | 18 | 26 | 49 | 78 | – | – | – | – |
| PPEDERQNR (also called Peptide No 93) [5T4 9 mer peptide 93 PPEDERQNR] | 0 | 0 | 0 | 2 | – | – | – | – |
| AFSGSNASV (also called Peptide No 81) [5T4 9 mer peptide 81 AFSGSNASV] | 2 | 2 | 14 | 55 | – | – | – | – |
| LDLSNNSLV (also called Peptide No 120) [5T4 9 mer peptide 120 LDLSNNSLV] | 3 | 7 | 3 | 42 | – | – | – | – |
| SGSNASVSA (also called Peptide No 82) [5T4 9 mer peptide 82 SGSNASVSA] | 3 | 5 | 11 | 15 | – | – | – | – |
| HNPLADLSP (also called Peptide No 76) [5T4 9 mer peptide 76 HNPLADLSP] | 3 | 5 | 5 | 7 | – | – | – | – |
| NHIVPPEDE (also called Peptide No 91) [5T4 9 mer peptide 91 NHIVPPEDE] | 3 | 6 | 5 | 11 | – | – | – | – |
| AGRALQGLR (also called Peptide No 103) [5T4 9 mer peptide 103 AGRALQGLR] | 2 | 0 | 1 | 2 | – | – | – | – |
| EDERQNRSF (also called Peptide No 94) [5T4 9 mer peptide 94 EDERQNRSF] | 4 | 0 | 4 | 2 | – | – | – | – |
| LPRDVLAQL [5T4 9 mer peptide 113 LPRDVLAQL] | 3 | 3 | 79 | 10 | – | – | – | – |
| LTYVSFRNL [5T4 9-mer peptide 125 (LTYVSFRNL)] | – | – | – | – | 28 % of positive control | 58 % of positive control | 20 % of positive control | 25 % of positive control |
| PLADLSPFA (also called Peptide No 77) [5T4 9 mer peptide 77 PLADLSPFA] | 0 | 1 | 10 | 67 | – | – | – | – |
| RRLELASNH [5T4 9 mer peptide 107 RRLELASNH] | 3 | 0 | 3 | 5 | – | – | – | – |
| VSAPSPLVE (also called Peptide No 85) [5T4 9 mer peptide 85 VSAPSPLVE] | 7 | 3 | 3 | 13 | – | – | – | – |
| SSSPTSSAS (also called Peptide No 16) [5T4 9 mer peptide 16 SSSPTSSAS] | 2 | 4 | 8 | 7 | – | – | – | – |
| PFAFSGSNA (also called Peptide No 80) [5T4 9 mer peptide 80 PFAFSGSNA] | 3 | 0 | 7 | 13 | – | – | – | – |
| NNSLVSLTY [5T4 9-mer peptide 122 (NNSLVSLTY)] | – | – | – | – | 8 % of positive control | 0 % of positive control | 4 % of positive control | 12 % of positive control |
| RDVLAQLPS [5T4 9 mer peptide 114 RDVLAQLPS] | 3 | 1 | 4 | 15 | – | – | – | – |
| VSSSSPTSS (also called Peptide No 15) [5T4 9 mer peptide 15 VSSSSPTSS] | 2 | 3 | 2 | 9 | – | – | – | – |
| AALLAGRAL [5T4 9 mer peptide 101 AALLAGRAL] | 0 | 1 | 59 | 38 | – | – | – | – |
| GMVVAALLA (also called Peptide No 99) [5T4 9 mer peptide 99 GMVVAALLA] | 0 | 0 | 0 | 71 | – | – | – | – |
| VVAALLAGR (also called Peptide No 100) [5T4 9 mer peptide 100 VVAALLAGR] | 49 | 9 | 7 | 11 | – | – | – | – |
| SPTSSASSF (also called Peptide No 17) [5T4 9 mer peptide 17 SPTSSASSF] | 0 | 2 | 62 | 4 | – | – | – | – |
| ERQNRSFEG (also called Peptide No 95) [5T4 9 mer peptide 95 ERQNRSFEG] | 1 | 0 | 1 | 1 | – | – | – | – |
| SSAPFLASA (also called Peptide No 22) [5T4 9 mer peptide 22 SSAPFLASA] | 1 | 6 | 7 | 85 | – | – | – | – |
| ILNHIVPPE (also called Peptide No 90) [5T4 9 mer peptide 90 ILNHIVPPE] | 4 | 5 | 7 | 63 | – | – | – | – |
